Results on one protein are retold here after PMC3382596, “A Phthalimide Derivative That Inhibits Centrosomal Clustering Is Effective on Multiple Myeloma” (PLoS ONE, 2012).

This data set concerns the molecule itself. Description: SEC; gel filtration of recombinant NPM(1-183) from E. coli to separate oligomeric and monomeric forms; fractions checked by SDS-PAGE with CBB staining. (In general: In gel filtration, larger molecules generally elute earlier.)

B1: Recombinant NPM(1-183), the 183 NH2-terminal amino acids of nucleophosmin 1 (domain or fragment, human, UniProt P06748 1-183, looked up)
chain: MEDSMDMDMSPLRPQNYLFGCELKADKDYHFKVDNDENEHQLSLRTVSLGAGAKDELHIVEAEAMNYEGSPIKVTLATLKMSVQPTVSLGGFEITPPVVLRLKCGSGPVHISGQHLVAVEEDAESEDEEEEDVKLLSISGKRSAPGGGSKVPQKKVKLAADEDDDDDDEEDDDEDDDDDDFDD
notes: nucleophosmin 1 (NPM/B23), clone from a cDNA library of the human multiple myeloma cell line KMS34; also called NPM/B23; 1-183 NPM; source: E. coli, partially purified, fractionated by gel filtration
B1: the binding result was “binds”.
